According to publication PMC10967385, “Essential role of obscurin kinase-1 in cardiomyocyte coupling via N-cadherin phosphorylation” (JCI Insight, 2024):
Positions count from the first letter of the chain named. Values belong to the binder of their own block, whether it stands above or below them.

Molecular target: T1, MBP-p120-catenin(311-747), middle portion of p120-catenin containing armadillo domains 1-8 fused to maltose … (UniProt P30999 311-747)
T1 construct: p120-catenin, middle portion containing armadillo domains 1-8, aa 311-747; source: recombinant protein (source in Supplemental Methods)
T1 sequence (looked up): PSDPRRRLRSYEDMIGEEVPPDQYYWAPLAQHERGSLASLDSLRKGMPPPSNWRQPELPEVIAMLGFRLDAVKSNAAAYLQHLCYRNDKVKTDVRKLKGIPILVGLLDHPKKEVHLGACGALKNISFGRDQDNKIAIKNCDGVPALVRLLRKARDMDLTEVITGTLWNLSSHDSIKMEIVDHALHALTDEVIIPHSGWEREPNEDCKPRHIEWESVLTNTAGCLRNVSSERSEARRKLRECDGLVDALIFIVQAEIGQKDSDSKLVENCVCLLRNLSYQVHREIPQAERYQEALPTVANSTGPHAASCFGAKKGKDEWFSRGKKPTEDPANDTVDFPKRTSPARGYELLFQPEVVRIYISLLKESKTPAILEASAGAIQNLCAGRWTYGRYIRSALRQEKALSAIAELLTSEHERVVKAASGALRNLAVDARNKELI
Assay: ITC; VP-ITC, 37°C, PBS pH 7.4; GST-Ncad ligands (80-100 μM) titrated into 10 μM MBP-p120-catenin(311-747) in the sample chamber; control titrations subtracted; 1-site binding model; average of 3 replicates; number of sites fixed to 1 for the SE ligand
Conditions: both partners purified

Kd: 1.25 µM
B1: GST-Ncad(746-906)-WT, recombinant GST-tagged cytoplasmic domain of N-cadherin (domain or fragment, mouse, UniProt P15116 746-906, looked up)
chain: MKRRDKERQAKQLLIDPEDDVRDNILKYDEEGGGEEDQDYDLSQLQQPDTVEPDAIKPVGIRRLDERPIHAEPQYPVRSAAPHPGDIGDFINEGLKAADNDPTAPPYDSLLVFDYEGSGSTAGSLSSLNSSSSGGDQDYDYLNDWGPRFKKLADMYGGGDD
notes: source: recombinant protein (source in Supplemental Methods)

Kd: 197 µM
B2: GST-Ncad(746-906)-SE, phosphomimic Ser-788-Glu GST-tagged cytoplasmic domain of N-cadherin (domain or fragment, mouse, UniProt P15116 746-906, looked up)
chain: B1 chain with S43E
notes: as for B1
